Laboratory results as given in PMC4630614.

Molecular target: UbcA1, ubiquitin-conjugating enzyme E2 from Agrocybe aegerita (Agrocybe aegerita)
Experiment: AUC; velocity sedimentation, Beckman XL-I, 4 °C, 40 μM protein, 50 mM Tris pH 7.5, 150 mM NaCl, 60,000 rpm, c(S) of Sedfit; monomer to dimer

Substance: UbcA1, ubiquitin-conjugating enzyme E2 from Agrocybe aegerita
- monomer : dimer ratio (monomer : dimer): 32.6
- stoichiometry N: 2
